The results in this text go back to patent publication JP2023053786A (dated 2023).

Assay [1] concerns the target T1, HBs抗原(Prosec Tany Technology Ltd. HBS 875), biotinylated (Hepatitis B virus (adr型), UniProt P03140 175-400, biotinylated with EZ-Link NHS-PEG4-biotin (sites not given)).
T1 construct: also called ビオチン化HBs抗原; adr型HBs抗原(PROSPEC社製)
T1 chain: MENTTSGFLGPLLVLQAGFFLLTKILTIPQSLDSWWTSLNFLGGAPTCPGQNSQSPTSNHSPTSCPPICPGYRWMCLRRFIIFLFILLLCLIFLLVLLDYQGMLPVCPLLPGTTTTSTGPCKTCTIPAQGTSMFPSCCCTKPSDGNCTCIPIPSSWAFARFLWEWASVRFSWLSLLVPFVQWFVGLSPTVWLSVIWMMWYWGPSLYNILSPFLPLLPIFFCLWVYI
The assay can be described thus: BLI (Octet), as in Example 3: biotinylated HBs antigen on streptavidin sensor. In general terms: BLI is a label-free optical method that tracks binding on a fibre tip over time.

Assay [2] has as its target T1, HBs抗原(Prosec Tany Technology Ltd. HBS …. The assay can be described thus: BLI (Octet RED96e), biotinylated HBs antigen on streptavidin sensor, antibody in solution.

B1: ヒト化HB351 (antibody, V domains shown)
VH: EVQLVQSGAEVKKPGATVKISCKVSGFNIKDTYMYWVQQAPGKGLEWIGRIDPANGDTKYDPNFQGRVTITADTSTDTAYMELSSLRSEDTAVYYCARDDYDGAMDYWGQGTLVTVSS
VL: EIVLTQSPATLSLSPGERATLSCSASSTVNYMYWYQQKPGQAPRLLNFDTSNLASGIPARFSGSGSGTDFTLTISSLEPEDFAVYYCQRWSTYPPITFGQGTKLEIK
notes: also called humanized HB351; ヒト化したモノクローナル抗体HB351
One may read the Kd as a measure of binding affinity in units of concentration. High values mean lower affinity, low ones higher affinity. In assay [1], B1 returned a Kd of roughly 0.3 nM.

B2: ヒト化HB1170 (antibody, V domains shown)
VH: QVQLVQSGSELKKPGASVKVSCKASGYTFTDFSMHWVRQAPGQGLKWMGWIDTETGEPTNADDFKGRFVFSLDTSVSTAYLQISSLKAEDTAVYYCARKDYELGTWFVYWGQGTTVTVSS
VL: DIQMTQSPSSLSASVGDRVTITCRASQDISNFLNWYQQKPGKAPKLLIYYTSRLHSGVPSRFSGSGSGTDYTLTISSLQPEDFATYYCQQGKTLPRTFGGGTKVEIK
notes: also called humanized HB1170; ヒト化したモノクローナル抗体HB1170
The molecule B2 registered a Kd in assay [1] of roughly 3 nM.

B3: クローンHB1215 (mouse monoclonal HBs antigen-binding antibody) (antibody, V domains shown)
VH: QVQLKQSGPGLVQPSQSLSLTCTVSGFSLATYGVQWVRQSPGKGLEWLGVIWRGGNTDYNAAFMSRLSITKDNSKSQVFFKMNSLQGDDTAIYYCAKATYFDVWGAGTTVTVSS
VL: QAVVTQESALTTSPGETVTLTCRSSTGAVTTSNFANWVQEKPDHLFTGLIGDTNNRAPGVPARFSGSLIGDKAALTITGAQTEDEAIYFCALWYNNWVFGGGTKLTVL
notes: Mouse hybridoma antibody; also called HB1215; HB1215クローン
Turning to B3, the Kd in assay [2] is roughly 0.3 nM.

B4: クローンHB351 (mouse monoclonal HBs antigen-binding antibody) (antibody, V domains shown)
VH: EIQLQQSGAELVKPGASVKLSCTASGFNIKDTYMYWVKQRPEQGLEWIGRIDPANGDTKYDPNFQGKATITADPSSNTAYLQLTSLTSEDTAVYYCARDDYDGAMDYWGRGTSVTVSS
VL: QIVLTQSPAIMSASPGERVTMTCSASSTVNYMYWYQQKPGSSPRLLNFDTSNLASGVPVRFSGSGSGTSYSLTISRMEAEDAATYYCQRWSTYPPITFGSGTKLEIK
notes: Mouse hybridoma antibody; The 91/92 assignment follows the order HB351, HB1170, HB1215 = (1), (2), (3); also called HB351; クローン351
Take B4: in assay [2], the Kd is roughly 0.3 nM.

B5: クローンHB1170 (mouse monoclonal HBs antigen-binding antibody) (antibody, V domains shown)
VH: QIQLVQSGPELKKPGETVKISCKASGYTFTDFSMHWVKQAPGKGLKWMGWIDTETGEPTNADDFKGRFVFSLETSASAAYLQIHNLKNDDTATYFCARKDYELGTWFVYWGQGTLVTVST
VL: DIQMTQTTSSLSASLGDRVTISCRASQDISNFLNWYQQKPDGTVKLLIYYTSRLHSGVPSRFSGSGSGTDYSLTISNLEQEDFATYFCQQGKTLPRTFGGGTILEIK
notes: Mouse hybridoma antibody; also called HB1170; HB1170クローン
As for B5, the Kd in assay [2] is roughly 3 nM.
